{
  "source": "patent US20210145933A1",
  "about": "(COMPLEMENT THERAPEUTICS, published 2021)",
  "key": {"[1]": {"target": "T1, C3b (human, UniProt P01024 23-667; P01024 749-1663)", "T1 construct": "In the cofactor assays it was plain 'pure C3b protein'; also called pure C3b protein; biotinylated C3b protein", "T1 sequence (P01024 23-667 limits assumed, chain 1 of 2)": "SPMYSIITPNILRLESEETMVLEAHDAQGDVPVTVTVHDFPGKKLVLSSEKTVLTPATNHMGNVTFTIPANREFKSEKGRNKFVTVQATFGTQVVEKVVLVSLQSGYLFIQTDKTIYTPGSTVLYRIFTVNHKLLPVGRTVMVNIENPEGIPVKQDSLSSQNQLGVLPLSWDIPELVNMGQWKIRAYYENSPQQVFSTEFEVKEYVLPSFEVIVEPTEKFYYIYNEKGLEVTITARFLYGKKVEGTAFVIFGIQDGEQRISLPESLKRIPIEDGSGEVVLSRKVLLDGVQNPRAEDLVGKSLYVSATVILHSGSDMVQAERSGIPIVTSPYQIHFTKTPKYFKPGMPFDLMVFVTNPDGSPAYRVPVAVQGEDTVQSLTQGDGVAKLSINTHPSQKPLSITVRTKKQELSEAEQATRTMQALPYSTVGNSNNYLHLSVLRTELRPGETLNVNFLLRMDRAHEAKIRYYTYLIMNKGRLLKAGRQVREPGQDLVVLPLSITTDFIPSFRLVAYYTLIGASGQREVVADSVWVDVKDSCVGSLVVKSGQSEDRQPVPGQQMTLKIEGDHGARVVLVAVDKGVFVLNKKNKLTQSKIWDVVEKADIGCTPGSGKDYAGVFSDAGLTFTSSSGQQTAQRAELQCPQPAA", "T1 sequence (P01024 749-1663 limits assumed, chain 2 of 2)": "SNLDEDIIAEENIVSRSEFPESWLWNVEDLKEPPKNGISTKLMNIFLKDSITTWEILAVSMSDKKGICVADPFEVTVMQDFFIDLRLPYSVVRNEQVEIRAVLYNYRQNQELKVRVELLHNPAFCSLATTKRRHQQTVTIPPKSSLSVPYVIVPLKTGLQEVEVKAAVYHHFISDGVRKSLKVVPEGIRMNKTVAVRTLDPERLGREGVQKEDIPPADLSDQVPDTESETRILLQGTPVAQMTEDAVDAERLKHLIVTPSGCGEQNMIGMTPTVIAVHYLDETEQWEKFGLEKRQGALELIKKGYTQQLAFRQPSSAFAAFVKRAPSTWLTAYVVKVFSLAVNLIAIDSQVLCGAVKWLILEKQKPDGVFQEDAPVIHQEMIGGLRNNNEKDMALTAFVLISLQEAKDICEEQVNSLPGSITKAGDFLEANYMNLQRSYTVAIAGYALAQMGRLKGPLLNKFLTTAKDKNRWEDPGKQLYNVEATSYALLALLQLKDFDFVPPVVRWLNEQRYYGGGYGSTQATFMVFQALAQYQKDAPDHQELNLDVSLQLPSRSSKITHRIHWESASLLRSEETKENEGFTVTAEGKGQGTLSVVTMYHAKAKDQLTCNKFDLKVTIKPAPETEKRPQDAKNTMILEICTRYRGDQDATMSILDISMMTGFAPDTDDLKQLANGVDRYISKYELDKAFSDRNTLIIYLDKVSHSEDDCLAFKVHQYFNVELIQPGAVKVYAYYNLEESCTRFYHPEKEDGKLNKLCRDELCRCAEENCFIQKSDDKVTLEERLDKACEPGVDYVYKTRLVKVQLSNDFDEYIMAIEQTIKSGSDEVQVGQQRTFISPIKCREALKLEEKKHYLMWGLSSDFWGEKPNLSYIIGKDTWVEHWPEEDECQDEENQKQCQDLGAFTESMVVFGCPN", "assay": "BLI (OctetRed96), biotinylated C3b on streptavidin (SAX) sensors, CR1a in solution; the same table prints KD Error (%) 0.4186, Full R^2 0.8731, '30 µgml' under Data Location", "description": "(§1) The affinity of CR1a for C3b protein was measured using OctetRed96 System (ForteBio, Pall Corp., USA). Biotinylated C3b protein was diluted in 0.2% PBST to final concentration of 0.4 μg/mL and loaded onto High Precision Streptavidin (SAX) Biosensors (ForteBio, Pall Corp., USA) for 600 s, previously hydrated with the same buffer for 20 min. C3b-loaded sensors were then washed with 0.2% PBST for 150 s (baseline) and dipped into wells containing CR1a in different concentrations ranging from 30.0 μg/mL to 2.6 μg/mL for 600 s (association) followed by wash with 0.2% PBST for 600 s (dissociation). Association and dissociation profiles were recorded and analysed with ForeBio Data Analysis v9 (ForteBio, Pall Corp., USA). The negative control i.e. 0.2% PBST containing well was used in parallel to subtract binding resulting from nonspecific interactions with the sensors. Experiments were performed using the kinetics mode, at 25° C. and sample plates were pre-agitated for 3 min. The binding profiles were globally fitted to 1:1 (one analyte in solution to one binding site on the surface). […] Binding affinities were also determined for native soluble C3b-binding complement regulators Factor H (FH) and FHL-1 to immobilised C3b."}, "[2]": {"target": "T1, C3b", "assay": "BLI (OctetRed96), immobilised biotinylated C3b, FH in solution", "description": "as §1"}, "[3]": {"target": "T1, C3b", "assay": "BLI (OctetRed96), biotinylated C3b on streptavidin (SAX) sensors, FH in solution; the same table prints KD Error (%) 3.0192, Full R^2 0.9770, '167 µgml' under Data Location, FH ~155kDa", "description": "as §1"}, "[4]": {"target": "T1, C3b", "assay": "BLI (OctetRed96), immobilised biotinylated C3b, FHL-1 in solution", "description": "as §1"}, "[5]": {"target": "T1, C3b", "assay": "BLI (OctetRed96), biotinylated C3b on streptavidin (SAX) sensors, FHL-1 in solution; the same table prints KD Error (%) 3.1325, Full R^2 0.9550, '278 µgml' under Data Location, FHL-1 ~50kDa", "description": "as §1"}},
  "data": [
    {"binder": "CR1a (CCPs 8-10 of human Complement Receptor 1, secreted from HEK293 cells) (receptor, also called Human Complement Receptor 1 CCPs 8-10; recombinant CR1a protein) not shown", "values": [
      {"measurement": "Kd", "setting": "[1]", "value": 21, "unit": "nM"}
    ]},
    {"binder": "Complement Factor H (FH) (other) EDCNELPPRRNTEILTGSWSDQTYPEGTQAIYKCRPGYRSLGNVIMVCRKGEWVALNPLRKCQKRPCGHPGDTPFGTFTLTGGNVFEYGVKAVYTCNEGYQLLGEINYRECDTDGWTNDIPICEVVKCLPVTAPENGKIVSSAMEPDREYHFGQAVRFVCNSGYKIEGDEEMHCSDDGFWSKEKPKCVEISCKSPDVINGSPISQKIIYKENERFQYKCNMGYEYSERGDAVCTESGWRPLPSCEEKSCDNPYIPNGDYSPLRIKHRTGDEITYQCRNGFYPATRGNTAKCTSTGWIPAPRCTLKPCDYPDIKHGGLYHENMRRPYFPVAVGKYYSYYCDEHFETPSGSYWDHIHCTQDGWSPAVPCLRKCYFPYLENGYNQNYGRKFVQGKSIDVACHPGYALPKAQTTVTCMENGWSPTPRCIRVKTCSKSSIDIENGFISESQYTYALKEKAKYQCKLGYVTADGETSGSITCGKDGWSAQPTCIKSCDIPVFMNARTKNDFTWFKLNDTLDYECHDGYESNTGSTTGSIVCGYNGWSDLPICYERECELPKIDVHLVPDRKKDQYKVGEVLKFSCKPGFTIVGPNSVQCYHFGLSPDLPICKEQVQSCGPPPELLNGNVKEKTKEEYGHSEVVEYYCNPRFLMKGPNKIQCVDGEWTTLPVCIVEESTCGDIPELEHGWAQLSSPPYYYGDSVEFNCSESFTMIGHRSITCIHGVWTQLPQCVAIDKLKKCKSSNLIILEEHLKNKKEFDHNSNIRYRCRGKEGWIHTVCINGRWDPEVNCSMAQIQLCPPPPQIPNSHNMTTTLNYRDGEKVSVLCQENYLIQEGEEITCKDGRWQSIPLCVEKIPCSQPPQIEHGTINSSRSSQESYAHGTKLSYTCEGGFRISEENETTCYMGKWSSPPQCEGLPCKSPPEISHGVVAHMSDSYQYGEEVTYKCFEGFGIDGPAIAKCLGEKWSHPPSCIKTDCLSLPSFENAIPMGEKKDVYKAGEQVTYTCATYYKMDGASNVTCINSRWTGRPTCRDTSCVNPPTVQNAYIVSRQMSKYPSGERVRYQCRSPYEMFGDEEVMCLNGNWTEPPQCKDSTGKCGPPPPIDNGDITSFPLSVYAPASSVEYQCQNLYQLEGNKRITCRNGQWSEPPKCLHPCVISREIMENYNIALRWTAKQKLYSRTGESVEFVCKRGYRLSSRSHTLRTTCWDGKLEYPTCAKR", "values": [
      {"measurement": "Kd", "setting": "[2]", "value": 580, "unit": "nM"},
      {"measurement": "Kd", "setting": "[3]", "value": 583, "unit": "nM"}
    ]},
    {"binder": "Complement Factor H isoform FHL-1 (other, also called factor H-like protein 1) EDCNELPPRRNTEILTGSWSDQTYPEGTQAIYKCRPGYRSLGNVIMVCRKGEWVALNPLRKCQKRPCGHPGDTPFGTFTLTGGNVFEYGVKAVYTCNEGYQLLGEINYRECDTDGWTNDIPICEVVKCLPVTAPENGKIVSSAMEPDREYHFGQAVRFVCNSGYKIEGDEEMHCSDDGFWSKEKPKCVEISCKSPDVINGSPISQKIIYKENERFQYKCNMGYEYSERGDAVCTESGWRPLPSCEEKSCDNPYIPNGDYSPLRIKHRTGDEITYQCRNGFYPATRGNTAKCTSTGWIPAPRCTLKPCDYPDIKHGGLYHENMRRPYFPVAVGKYYSYYCDEHFETPSGSYWDHIHCTQDGWSPAVPCLRKCYFPYLENGYNQNYGRKFVQGKSIDVACHPGYALPKAQTTVTCMENGWSPTPRCIRVSFTL", "values": [
      {"measurement": "Kd", "setting": "[4]", "value": 1200, "unit": "nM"},
      {"measurement": "Kd", "setting": "[5]", "value": 1170, "unit": "nM"}
    ]}
  ]
}
